Key:
[1] = target: T1, biotinylated Bcr-Abl DH-PH tandem domain (Avi-tag) (UniProt P11274 487-893, biotin on the Avi-tag); assay: flow cytometry on cells; monobody displayed on yeast surface; biotinylated target 10 nM to 1 uM in TBS with 0.1% BSA, 30 min at RT; streptavidin-DyLight650; 1:1 binding model; apparent Kd; conditions: one partner purified
T1 construct: Bcr part of Bcr-Abl p210, DH-PH tandem domain, residues 487-893; Cloned in pHBT1, which for the monobodies is said to give an N-terminal His- and Avi-tag followed by a TEV site; also called biotinylated DH-PH domain; source: E. coli BL21(DE3), co-expressed with BirA and 50 uM biotin, purified; not shown: Avi-tag, N-terminal, kept
T1 sequence (looked up): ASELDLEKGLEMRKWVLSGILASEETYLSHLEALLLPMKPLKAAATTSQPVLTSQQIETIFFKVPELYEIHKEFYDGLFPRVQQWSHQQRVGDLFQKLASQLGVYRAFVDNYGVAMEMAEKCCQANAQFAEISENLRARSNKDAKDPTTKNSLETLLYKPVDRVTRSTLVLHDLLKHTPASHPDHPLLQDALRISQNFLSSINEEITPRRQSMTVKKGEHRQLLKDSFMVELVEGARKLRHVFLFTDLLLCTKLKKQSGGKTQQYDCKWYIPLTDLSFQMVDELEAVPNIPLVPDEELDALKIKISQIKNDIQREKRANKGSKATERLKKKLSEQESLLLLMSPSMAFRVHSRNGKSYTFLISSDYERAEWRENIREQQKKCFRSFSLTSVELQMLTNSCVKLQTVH

[2] = target: T2, Bcr-Abl DH domain (residues 487-702); assay: ITC; monobody (200 uM stock) titrated to the DH domain (20 uM) at 25 °C; 25 mM HEPES pH 7.5, 150 mM NaCl, 0.5 mM TCEP; 1:1 binding model; conditions: both partners purified
T2 construct: Bcr part of Bcr-Abl p210, Dbl-homology domain, residues 487-702; 15N-labelled for the NMR experiments; also called Bcr DH; source: E. coli Rosetta(DE3), purified (Ni-NTA, TEV cleavage, reverse Ni, SEC); not shown: His-tag, N-terminal, cleaved
T2 chain: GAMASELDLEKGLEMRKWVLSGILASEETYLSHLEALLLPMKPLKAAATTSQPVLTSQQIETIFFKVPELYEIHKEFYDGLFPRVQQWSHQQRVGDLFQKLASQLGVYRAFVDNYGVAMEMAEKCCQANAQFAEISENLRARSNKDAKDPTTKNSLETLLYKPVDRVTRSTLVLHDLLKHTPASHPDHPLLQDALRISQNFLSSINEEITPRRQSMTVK

[3] = target: T3, biotinylated Bcr-Abl PH domain (Avi-tag) (UniProt P11274 704-893, biotin on the Avi-tag); assay: flow cytometry on cells; monobody displayed on yeast surface; biotinylated target 10 nM to 1 uM in TBS with 0.1% BSA, 30 min at RT; streptavidin-DyLight650; 1:1 binding model; apparent Kd; conditions: one partner purified
T3 construct: Bcr part of Bcr-Abl p210, Pleckstrin-homology domain, residues 704-893; Cloned in pHBT1; the limits are those stated for the PH domain construct; also called biotinylated PH; source: E. coli BL21(DE3), co-expressed with BirA and 50 uM biotin, purified; not shown: Avi-tag, N-terminal, kept
T3 sequence (looked up): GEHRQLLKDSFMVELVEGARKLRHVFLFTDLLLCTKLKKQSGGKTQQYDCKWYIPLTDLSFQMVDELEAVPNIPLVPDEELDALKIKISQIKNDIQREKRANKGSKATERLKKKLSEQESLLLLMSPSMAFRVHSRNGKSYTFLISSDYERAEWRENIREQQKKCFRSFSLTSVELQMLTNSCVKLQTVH

B1: monobody Mb(Bcr-DH_3), displayed on yeast surface (designed binder)
chain: VSSVPTKLEVVAATPTSLLISWDAPAVTVDLYVITYGETGGNSPVQAFEVPGSKSTATISGLKPGVDYTITVYAGSETYRGYWSPISINYRT
notes: monobody on the fibronectin type III scaffold, side-and-loop library
Kd [1]: 18 ± 5 nM

B2: monobody Mb(Bcr-DH_3), purified (designed binder)
chain: B1 chain
notes: monobody on the fibronectin type III scaffold, side-and-loop library; also called Mb(DH_3); source: E. coli BL21(DE3), purified; not shown: His-tag, N-terminal, cleaved; Avi-tag, N-terminal, cleaved
Kd [2]: 2.1 nM | stoichiometry N [2]: 0.78

B3: monobody Mb(Bcr-PH_2), displayed on yeast surface (designed binder)
chain: VSSVPTKLEVVAATPTSLLISWDAPAVTVVFYVITYGETGGNSPVQEFTVPGSKSTATISGLKPGVDYTITVYAEYYGYTSSPISINYRT
notes: as for B1
Kd [3]: 46 ± 10 nM

B4: monobody Mb(Bcr-PH_3), displayed on yeast surface (designed binder)
chain: VSSVPTKLEVVAATPTSLLISWDAPAVTVVFYVITYGETGGNSPVQEFTVPGSKSTATISGLKPGVDYTITVYAEYYGYSGWQSPISINYRT
notes: as for B1
Kd [3]: 63 ± 12 nM

B5: monobody Mb(Bcr-DH_4), displayed on yeast surface (designed binder)
chain: VSSVPTKLEVVAATPTSLLISWDAPAVTVDLYVITYGETGGNSPVQEFEVPGSKSTATISGLKPGVDYTITVYAGSYAYEYYWGPSPISINYRT
notes: as for B1
Kd [1]: 20 ± 7 nM

B6: monobody Mb(Bcr-DH_4), purified (designed binder)
chain: B5 chain
notes: monobody on the fibronectin type III scaffold, side-and-loop library; also called Mb(DH_4); S10; source: E. coli BL21(DE3), purified; not shown: His-tag, N-terminal, cleaved; Avi-tag, N-terminal, cleaved
Kd [2]: 14.5 ± 8.6 nM | stoichiometry N [2]: 0.94
